For one substance, fold change of bound Fap7 against Fap7 alone results are on record in publication PMC7812869.

Several values for one entry are separate records, joined by “and”; a condition that tells them apart may be missing. Identical values can stand only once.

For the assay, the target named is 80S-like ribosomes (yeast | yeast (endogenous in the yeast strain)) (UniProt Q07381). Kind of assay: co-sedimentation.
Chain of UniProt Q07381 (Q07381 whole entry, looked up): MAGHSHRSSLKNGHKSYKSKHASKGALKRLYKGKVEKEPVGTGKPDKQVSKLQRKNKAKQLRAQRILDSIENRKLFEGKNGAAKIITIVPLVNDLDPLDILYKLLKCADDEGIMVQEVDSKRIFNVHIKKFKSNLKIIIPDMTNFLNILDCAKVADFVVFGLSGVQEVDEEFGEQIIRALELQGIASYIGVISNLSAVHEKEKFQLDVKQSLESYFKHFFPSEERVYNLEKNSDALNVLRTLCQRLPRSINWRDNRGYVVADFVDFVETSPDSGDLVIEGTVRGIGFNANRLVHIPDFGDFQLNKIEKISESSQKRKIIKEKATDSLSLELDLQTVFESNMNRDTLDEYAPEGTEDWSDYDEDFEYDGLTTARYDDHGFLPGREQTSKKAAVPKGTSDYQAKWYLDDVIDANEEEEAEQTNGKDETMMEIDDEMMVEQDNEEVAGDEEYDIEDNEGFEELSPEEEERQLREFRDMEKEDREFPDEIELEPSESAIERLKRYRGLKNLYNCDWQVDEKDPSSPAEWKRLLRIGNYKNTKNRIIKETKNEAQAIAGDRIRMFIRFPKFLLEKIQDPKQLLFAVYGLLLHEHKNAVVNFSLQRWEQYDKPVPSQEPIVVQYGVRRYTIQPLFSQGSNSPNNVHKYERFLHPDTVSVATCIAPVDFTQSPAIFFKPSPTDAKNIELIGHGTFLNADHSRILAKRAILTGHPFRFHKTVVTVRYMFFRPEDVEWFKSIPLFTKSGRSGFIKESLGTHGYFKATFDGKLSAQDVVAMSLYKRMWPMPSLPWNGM

For the substance “Fap7+SUMO-Rps14 complex (from UniProt Q12055 1-197)”, the fold change of bound Fap7 against Fap7 alone is 2 fold and 3 fold.
